Two molecules from patent US20030100114, “Methods for regulating T cell subsets by modulating transcription factor activity” (President and Fellows of Harvard College, published 2003) can be followed below.

For data set [1], the target named is T1, c-Jun (Mus musculus, UniProt P05627 P05627:1-334). The experiment in a line: EMSA; consensus MARE contains core TRE site. As to conditions: tags: full-length, pGEM4, rabbit reticulocyte lysate TnT; label: 32P. The protocol: (§1) Electrophoretic mobility shift assays (EMSA) were performed as follows. 100 ng of double-stranded oligonucleotides were end-labeled with γ-³²P-dATP (DuPont NEN Research Product, Wilmington, Del.) using T4 polynucleotide kinase (Pharmacia LKB Biotechnology, Inc., Piscataway, N.J.). The labeled ds-oligonucleotides were fractionated on 15-20% polyacrylamide gels, eluted overnight at 37° C. in 1×TE and precipitated in ethanol. Binding assays were performed at room temperature for 20 minutes using 0.5 μg of recombinant proteins or 4 μl of in vitro translated products, 500 ng poly(dI-dC), and 20,000 cpm of probe in a 15 μl volume of 20 mM HEPES (pH 7.9), 100 mM KCl, 5% glycerol, 1 mM EDTA, 5 mM DTT, 0.1% NP-40, and 0.5 mg/ml BSA. The samples were then fractionated in 4% non-denaturing polyacrylamide gel containing 0.5×TBE at room temperature. Oligonucleotides derived from the murine IL4 promoter used in EMSA were: […]
T1 sequence (P05627 whole entry, one chain of several): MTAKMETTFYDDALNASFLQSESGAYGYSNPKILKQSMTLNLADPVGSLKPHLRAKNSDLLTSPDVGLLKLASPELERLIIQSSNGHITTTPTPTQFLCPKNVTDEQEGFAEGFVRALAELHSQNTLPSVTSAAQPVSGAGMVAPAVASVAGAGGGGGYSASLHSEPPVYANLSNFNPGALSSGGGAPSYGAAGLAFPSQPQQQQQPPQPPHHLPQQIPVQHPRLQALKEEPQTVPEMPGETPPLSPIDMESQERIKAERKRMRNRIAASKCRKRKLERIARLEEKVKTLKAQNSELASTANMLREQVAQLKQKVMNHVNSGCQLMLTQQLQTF

For data set [2], the target named is T2, c-Maf (b-zip domain, aa 171-371) (UniProt P54843 P54843:171-370). The data set can be described thus: EMSA; 20 mM HEPES pH 7.9, 100 mM KCl, room temperature. To be noted: tags: S-Tag, pET29, E. coli BL21(DE3); label: 32P. The method, then: as §1
T2 sequence (P54843 171-370, one chain of several): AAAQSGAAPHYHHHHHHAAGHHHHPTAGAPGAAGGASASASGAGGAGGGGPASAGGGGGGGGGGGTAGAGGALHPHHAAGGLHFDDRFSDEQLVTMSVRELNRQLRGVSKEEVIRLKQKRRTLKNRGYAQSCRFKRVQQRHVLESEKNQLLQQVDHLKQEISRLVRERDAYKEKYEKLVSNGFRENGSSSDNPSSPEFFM
The target in data set [3] is T1, c-Jun. The data set can be described thus: EMSA. To be noted: tags: full-length, pGEM4, rabbit reticulocyte lysate TnT; label: 32P. The method, then:
(§2) Electrophoretic mobility shift assays (EMSA) were performed as follows. 100 ng of double-stranded oligonucleotides were end-labeled with γ-³²P-dATP (DuPont NEN Research Product, Wilmington, Del.) using T4 polynucleotide kinase (Pharmacia LKB Biotechnology, Inc., Piscataway, N.J.). The labeled ds-oligonucleotides were fractionated on 15-20% polyacrylamide gels, eluted overnight at 37° C. in 1×TE and precipitated in ethanol. Binding assays were performed at room temperature for 20 minutes using 0.5 μg of recombinant proteins or 4 μl of in vitro translated products, 500 ng poly(dI-dC), and 20,000 cpm of probe in a 15 μl volume of 20 mM HEPES (pH 7.9), 100 mM KCl, 5% glycerol, 1 mM EDTA, 5 mM DTT, 0.1% NP-40, and 0.5 mg/ml BSA. The samples were then fractionated in 4% non-denaturing polyacrylamide gel containing 0.5×TBE at room temperature. Oligonucleotides derived from the murine IL4 promoter used in EMSA were:
(§3) NF-AT proteins interact cooperatively with AP-1 family member proteins to form higher mobility complexes on IL-2 and IL-4 promoter DNA on EMSA (Jain, J. (1993) Nature 365:353-355; Rooney, J. et al. (1995) Immunity 2:545-553). […] To determine if c-Maf interacted with NF-AT in the presence of DNA, recombinant NF-ATp and c-Maf proteins were used separately or together in EMSA with the 33 bp oligonucleotide containing both the NF-AT and adjacent MARE sites. […]

Data set [4] addresses T2, c-Maf (b-zip domain, aa 171-371). The data set can be described thus: EMSA; competed by homologous unlabeled probe; additional complex formed with NF-ATp. As to conditions: tags: S-Tag, pET29, E. coli BL21(DE3); label: 32P. The method, then:
as §2, §3

B1: consensus MARE (dsDNA)
DNA 1: GGAATTGCTGACTCAGCATTACT
DNA 2: AGTAATGCTGAGTCAGCAATTCC
Regarding B1, the binding result (with c-Jun [1]; in data set [2]) was “binds” each time.

B2: IL-4 promoter -59 to -27 wild type (dsDNA)
DNA 1: CTCATTTTCCCTTGGTTTCAGCAACTTTAACTC
DNA 2: GAGTTAAAGTTGCTGAAACCAAGGGAAAATGAG
With B2, the binding result is on record as “no binding” with c-Jun [3] and “binds” in data set [4].
